Reference: the supplement of paper PMC9732359
± gives the uncertainty stated by the source.

Test: protein stability index of a GFP-peptide fusion (yeast GPS) (PSI 1-4); higher = more stable; sorted into four equal gates, so the index is relative within each strain
Conditions: pdr5∆
In short: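 Peptides tiling yeast proteins in 17-residue segments were fused downstream of GFP, with Cherry expressed from the same plasmid. As a pooled library in yeast, mid-log cultures grown in leucine-free medium were sorted into four equal gates by GFP/Cherry fluorescence ratio. Gate plasmids were PCR-amplified and Illumina-sequenced, and barcodes linked reads to strains. Each peptide received a protein stability index equal to the sum of each gate's read frequency times its gate number.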

| Sequence | protein stability index |
| --- | --- |
| LQSLNESKDLLRASFNK [SRB4] | 3.32 ± 0.13 |
| LQVGDVVSTTAVIESVV [FAS1] | 1.59 ± 0.056 |
| LRAAQQQWGNDFYKRDP [FAS2] | 2.77 ± 0.051 |
| LRDDTLPKAWISLAVEG [COR1] | 1.9 ± 0.08 |

Same assay, conditions: san1∆

| Sequence | protein stability index |
| --- | --- |
| LKNKKEIYRISFQLSKI [RPS9A] | 3.1 ± 0.089 |
| LKNVEETQEIKENDTVM [ESC2] | 2.92 ± 0.14 |
| LKPEIEKLTSKSLDEQL [LRP1] | 2.85 ± 0.077 |
| LKSFTESTAGSASTSAT [ECM29] | 3.06 ± 0.053 |
| LKSGLPLSGLLFKNYRF [YMR129W/POM152] | 3.63 ± 0.057 |
| LKSIESLKLENSDLEGK [SMC2] | 3.39 ± 0.17 |
| LKVQKLSRPSLPKIKTV [RPL35A] | 3.17 ± 0.057 |
| LKYPELSIKNSFIINFI [NUT1] | 2.13 ± 0.076 |
| LLALRERRMQVTAEDFK [RPT2] | 2.89 ± 0.11 |
| LLFKARLQQQQAQAQAQ [GAL11] | 1.3 ± 0.14 |
| LLIADSRRPEPKKFGGK [RPS16A] | 3.23 ± 0.065 |
| LLINTNFNKFFKIWHGE [PCI8] | 1.57 ± 0.061 |
| LLIRSKTEDPKGGIIAS [YML031W/NDC1] | 2.28 ± 0.085 |
| LLKHPFKAIHGSQLRLS [YCS4] | 1.64 ± 0.072 |
| LLKKIIFEKELMYQIKK [SRB4] | 2.32 ± 0.09 |
| LLKLIEPYVAYGYPSYS [RPL7A] | 2.2 ± 0.056 |
| LLKSNDPLLSLYNFLHK [RGR1] | 2.54 ± 0.048 |
| LLLITHHSWSQSDLEII [ARP9] | 1.76 ± 0.075 |
| LLLKKIIKDYVLDIVPG [SRB4] | 2.33 ± 0.1 |
| LLNVSVNITKFSKFERS [SKI6] | 2.7 ± 0.06 |
| LLREYDILSQILYGLVD [YJL039C/NUP192] | 2.07 ± 0.11 |
| LLSKIMLNLIDDVKNIL [RPN6] | 1.25 ± 0.13 |
| LLTSAGCKNGSFTLLNQ [NUT1] | 2.3 ± 0.28 |
| LLVDIQKYNQIQKQIET [SMC2] | 2.2 ± 0.081 |

| Sequence | protein stability index |
| --- | --- |
| LLVDKDANGVSLFELIV [YJL039C/NUP192] | 3.07 ± 0.049 |
| LLYYIPSLELSAEYLQM [YJR042W/NUP85] | 1.45 ± 0.29 |
| LMATEYQDIEGGFEDVE [RPB2] | 3.49 ± 0.069 |
| LMEEIESLKKELQIFKT [YIL149C/MLP2] | 2.82 ± 0.072 |
| LMEFLCVVSTDSTNLSD [ECM29] | 1.84 ± 0.094 |
| LMLEDAVTEREVLVTPG [MCD1] | 2.16 ± 0.13 |
| LNDPSLKIQFILSTTLD [SIN4] | 1.32 ± 0.14 |
| LNELSAKDKEIYNKMIG [RPN13] | 2.2 ± 0.11 |
| LNIDFGSDKQMFTQIYL [YML103C/NUP188] | 2.46 ± 0.12 |
| LNIGKNFAHSDSLSVPK [SIR4] | 3.12 ± 0.042 |
| LNIKPLLDAGCKVVAEM [SKP1] | 1.85 ± 0.1 |
| LNLLSQNNTTKFHSELQ [RPN12] | 1.67 ± 0.12 |
| LNQINGLNNDFLFQNIN [GRR1] | 2.01 ± 0.11 |
| LNRIINHMLIDSLNQLE [RGR1] | 2.89 ± 0.18 |
| LNRLLRLIVDPNIADYI [PRP8] | 1.64 ± 0.091 |
| LNTFGSKICLSHFSLDQ [ITC1] | 2.09 ± 0.095 |
| LNTLNNVVEIWVFSYLR [SIR3] | 1.42 ± 0.11 |
| LPAAVSKSLQESGDTQE [RPC82] | 2.97 ± 0.059 |
| LPDPKPLPLDLNVQVWH [ITC1] | 3.01 ± 0.063 |
| LPEILNVLCVNIKSNDF [ECM29] | 1.37 ± 0.088 |
| LPELWALLNFVLPKIFN [SNF2] | 2.07 ± 0.098 |
| LPENIILTSLMRSKLEK [CSN9] | 2.78 ± 0.061 |
| LPHITQLEGFESRKAFF [RPB2] | 3.08 ± 0.052 |
| LPLISTDVLEISKQRTF [YMR129W/POM152] | 2.46 ± 0.062 |

| Sequence | protein stability index |
| --- | --- |
| LPLLILENSSRSPRVVT [NUT1] | 2.258 ± 0.015 |
| LPLTEHKSPNLSLMLES [SRB4] | 2.39 ± 0.11 |
| LPMDTNLFKINSIDVPI [YMR129W/POM152] | 2.49 ± 0.062 |
| LPPPPPPPGLDELETKA [PRP8] | 3.25 ± 0.05 |
| LPQSEWKAPSSIVLDSE [DIS3] | 3.14 ± 0.052 |
| LPRKEVDDVLGGGWDNV [RPC11] | 3.26 ± 0.066 |
| LPSGRQDGVLLVALSNE [FAS2] | 2.44 ± 0.091 |
| LPVKWETTTQFKATHIL [FAS1] | 2.23 ± 0.063 |
| LQCHISGTTNFMRNGLL [UBP6] | 1.81 ± 0.15 |
| LQEKISTELNNKQYELF [SWI1] | 2.52 ± 0.062 |
| LQFHVATYMDNDIAGQP [RPO21] | 2.6 ± 0.053 |
| LQGQMEKIMILLVPLAL [CSN12] | 1.3 ± 0.074 |
| LQNKSFKSVLPIVLLNT [UBP6] | 1.87 ± 0.12 |
| LQPFWFRVNNASINTSA [ECM29] | 1.26 ± 0.16 |
| LQPPKTSSRGRDHKSYS [SMC4] | 3 ± 0.071 |
| LQQQQQVVTTVASQSPH [SNF6] | 2.03 ± 0.11 |
| LQRHLSLGIRPCLRKYE [RRP43] | 2.82 ± 0.075 |
| LQRPTATDEESVRLQRF [CSN12] | 2.97 ± 0.1 |
| LQSLNESKDLLRASFNK [SRB4] | 2.98 ± 0.083 |
| LQVGDVVSTTAVIESVV [FAS1] | 2.04 ± 0.091 |
| LRAAQQQWGNDFYKRDP [FAS2] | 2.32 ± 0.12 |
| LRDDTLPKAWISLAVEG [COR1] | 1.78 ± 0.12 |

Same assay, conditions: ubr1∆

| Sequence | protein stability index |
| --- | --- |
| LKNKKEIYRISFQLSKI [RPS9A] | 3.2 ± 0.058 |
| LKNVEETQEIKENDTVM [ESC2] | 3.16 ± 0.074 |
| LKPEIEKLTSKSLDEQL [LRP1] | 2.88 ± 0.063 |
| LKSFTESTAGSASTSAT [ECM29] | 3.15 ± 0.04 |
| LKSIESLKLENSDLEGK [SMC2] | 2.99 ± 0.12 |
| LKVQKLSRPSLPKIKTV [RPL35A] | 3.17 ± 0.059 |
| LKYPELSIKNSFIINFI [NUT1] | 1.94 ± 0.036 |
| LLFIVGQVAIKTLVYLE [YCS4] | 3.18 ± 0.1 |
| LLFKARLQQQQAQAQAQ [GAL11] | 1.5 ± 0.056 |
| LLGEGESKLKIDPDTKA [RPB11] | 3.14 ± 0.24 |
| LLIADSRRPEPKKFGGK [RPS16A] | 3.07 ± 0.05 |
| LLINTNFNKFFKIWHGE [PCI8] | 1.37 ± 0.044 |
| LLIRSKTEDPKGGIIAS [YML031W/NDC1] | 2.66 ± 0.17 |
| LLKHPFKAIHGSQLRLS [YCS4] | 1.83 ± 0.025 |
| LLKKIIFEKELMYQIKK [SRB4] | 2.17 ± 0.05 |
| LLKLIEPYVAYGYPSYS [RPL7A] | 2.07 ± 0.042 |
| LLKSNDPLLSLYNFLHK [RGR1] | 2.55 ± 0.041 |
| LLKSTGLHPFEVAQLGS [RPB4] | 2.73 ± 0.2 |
| LLLITHHSWSQSDLEII [ARP9] | 1.87 ± 0.068 |
| LLLKKIIKDYVLDIVPG [SRB4] | 2.71 ± 0.073 |
| LLNVSVNITKFSKFERS [SKI6] | 2.44 ± 0.039 |
| LLREYDILSQILYGLVD [YJL039C/NUP192] | 2.19 ± 0.064 |
| LLSKIMLNLIDDVKNIL [RPN6] | 1.22 ± 0.08 |
| LLSSSNFEATKKSVLKQ [COR1] | 2.83 ± 0.28 |
| LLTSAGCKNGSFTLLNQ [NUT1] | 2.68 ± 0.12 |

| Sequence | protein stability index |
| --- | --- |
| LLVDIQKYNQIQKQIET [SMC2] | 1.65 ± 0.04 |
| LLVDKDANGVSLFELIV [YJL039C/NUP192] | 3.25 ± 0.037 |
| LLYYIPSLELSAEYLQM [YJR042W/NUP85] | 1.15 ± 0.12 |
| LMATEYQDIEGGFEDVE [RPB2] | 3.44 ± 0.099 |
| LMEEIESLKKELQIFKT [YIL149C/MLP2] | 3.08 ± 0.055 |
| LMEFLCVVSTDSTNLSD [ECM29] | 1.72 ± 0.063 |
| LMLEDAVTEREVLVTPG [MCD1] | 2.18 ± 0.27 |
| LNDPSLKIQFILSTTLD [SIN4] | 1.18 ± 0.042 |
| LNELSAKDKEIYNKMIG [RPN13] | 2.83 ± 0.082 |
| LNIDFGSDKQMFTQIYL [YML103C/NUP188] | 3.25 ± 0.066 |
| LNIGKNFAHSDSLSVPK [SIR4] | 3.2 ± 0.05 |
| LNIKPLLDAGCKVVAEM [SKP1] | 2.47 ± 0.054 |
| LNLLSQNNTTKFHSELQ [RPN12] | 2.16 ± 0.12 |
| LNQINGLNNDFLFQNIN [GRR1] | 1.8 ± 0.086 |
| LNRIINHMLIDSLNQLE [RGR1] | 2.68 ± 0.19 |
| LNRLLRLIVDPNIADYI [PRP8] | 1.95 ± 0.044 |
| LNTFGSKICLSHFSLDQ [ITC1] | 2.33 ± 0.039 |
| LNTLNNVVEIWVFSYLR [SIR3] | 1.58 ± 0.053 |
| LPAAVSKSLQESGDTQE [RPC82] | 2.83 ± 0.093 |
| LPDPKPLPLDLNVQVWH [ITC1] | 2.55 ± 0.038 |
| LPEILNVLCVNIKSNDF [ECM29] | 1.58 ± 0.035 |
| LPELWALLNFVLPKIFN [SNF2] | 1.51 ± 0.038 |
| LPENIILTSLMRSKLEK [CSN9] | 2.7 ± 0.048 |
| LPHITQLEGFESRKAFF [RPB2] | 3.12 ± 0.041 |
| LPLISTDVLEISKQRTF [YMR129W/POM152] | 2.51 ± 0.049 |

| Sequence | protein stability index |
| --- | --- |
| LPLLILENSSRSPRVVT [NUT1] | 1.94 ± 0.039 |
| LPLTEHKSPNLSLMLES [SRB4] | 2.75 ± 0.06 |
| LPMDTNLFKINSIDVPI [YMR129W/POM152] | 1.95 ± 0.045 |
| LPPPPPPPGLDELETKA [PRP8] | 3.17 ± 0.05 |
| LPQSEWKAPSSIVLDSE [DIS3] | 3.15 ± 0.05 |
| LPRKEVDDVLGGGWDNV [RPC11] | 3.32 ± 0.099 |
| LPSGRQDGVLLVALSNE [FAS2] | 1.91 ± 0.13 |
| LPVKWETTTQFKATHIL [FAS1] | 2.34 ± 0.04 |
| LQCHISGTTNFMRNGLL [UBP6] | 2.31 ± 0.17 |
| LQEKISTELNNKQYELF [SWI1] | 2.77 ± 0.059 |
| LQFHVATYMDNDIAGQP [RPO21] | 2.66 ± 0.056 |
| LQFRPAPMYILDEVDAA [SMC2] | 1.89 ± 0.1 |
| LQGQMEKIMILLVPLAL [CSN12] | 1.52 ± 0.045 |
| LQNKSFKSVLPIVLLNT [UBP6] | 2.1 ± 0.072 |
| LQNLQRIIRKKIFIAVV [RRI2] | 1.16 ± 0.091 |
| LQPFWFRVNNASINTSA [ECM29] | 1.49 ± 0.071 |
| LQPPKTSSRGRDHKSYS [SMC4] | 2.86 ± 0.049 |
| LQQQQQVVTTVASQSPH [SNF6] | 2.25 ± 0.049 |
| LQRHLSLGIRPCLRKYE [RRP43] | 3.08 ± 0.053 |
| LQRPTATDEESVRLQRF [CSN12] | 3.16 ± 0.1 |
| LQSLNESKDLLRASFNK [SRB4] | 3.48 ± 0.075 |
| LQVGDVVSTTAVIESVV [FAS1] | 2.01 ± 0.049 |
| LRAAQQQWGNDFYKRDP [FAS2] | 2.71 ± 0.047 |
| LRDDTLPKAWISLAVEG [COR1] | 1.44 ± 0.037 |
